Data from publication PMC5095074 (2016).

B1: GST-E-cadherin-cytoplasmic domain (cd) [human] / Purified β-catenin [not stated] (parent complex)
chain 1: RAVVKEPLLPPEDDTRDNVYYYDEEGGGEEDQDFDLSQLHRGLDARPEVTRNDVAPTLMSVPRYLPRPANPDEIGNFIDENLKAADTDPTAPPYDSLLVFDYEGSGSEAASLSSLNSSESDKDQDYDYLNEWGNRFKKLADMYGGGEDD
chain 2: MATQADLMELDMAMEPDRKAAVSHWQQQSYLDSGIHSGATTTAPSLSGKGNPEEEDVDTSQVLYEWEQGFSQSFTQEQVADIDGQYAMTRAQRVRAAMFPETLDEGMQIPSTQFDAAHPTNVQRLAEPSQMLKHAVVNLINYQDDAELATRAIPELTKLLNDEDQVVVNKAAVMVHQLSKKEASRHAIMRSPQMVSAIVRTMQNTNDVETARCTAGTLHNLSHHREGLLAIFKSGGIPALVKMLGSPVDSVLFYAITTLHNLLLHQEGAKMAVRLAGGLQKMVALLNKTNVKFLAITTDCLQILAYGNQESKLIILASGGPQALVNIMRTYTYEKLLWTTSRVLKVLSVCSSNKPAIVEAGGMQALGLHLTDPSQRLVQNCLWTLRNLSDAATKQEGMEGLLGTLVQLLGSDDINVVTCAAGILSNLTCNNYKNKMMVCQVGGIEALVRTVLRAGDREDITEPAICALRHLTSRHQEAEMAQNAVRLHYGLPVVVKLLHPPSHWPLIKATVGLIRNLALCPANHAPLREQGAIPRLVQLLVRAHQDTQRRTSMGGTQQQFVEGVRMEEIVEGCTGALHILARDVHNRIVIRGLNTIPLFVQLLYSPIENIQRVAAGVLCELAQDKEAAEAIEAEGATAPLTELLHSRNEGVATYAAAVLFRMSEDKPQDYKKRLSVELTSSLFRTEPMAWNETADLGLDIGAQGEPLGYRQDDPSYRSFHSGGYGQDALGMDPMMEHEMGGHHPGADYPVDGLPDLGHAQDLMDGLPPGDSNQLAWFDTDL

Variants of: B1
Experiment: GST pull-down, immunoblot anti-β-catenin, quantified; purified proteins; mean ± SD of three experiments; parent: 1; read off a plot

Variant	ratio to parent
chain 1 T57E	~0.39
chain 1 T57A	~1.1
